“Also recorded” adds a separate entry of the source. Where two headings read alike, the source gives them in different places. One block for each molecule: values may come before it. Bridge positions count the residues as written; N and C are the ends. Square brackets hold non-standard residues; d marks the D form. Triazole bridges read from a SMILES are 1,4-linked. Peptide text beside a SMILES is read from it. Lys(N3) = [N-]=[N+]=NCCCC[C@H](N)C(=O)O; Orn(N3) = [N-]=[N+]=NCCC[C@H](N)C(=O)O; Hpra = C#CCC[C@H](N)C(=O)O; Pra = C#CC[C@H](N)C(=O)O; Ahx = NCCCCCC(=O)O
Tests used:
circular dichroism = conditions: PBS (10 mM phosphate, 137 mM NaCl, 2.7 mM KCl); pH 7.4; rt °C; 100 uM
human plasma = conditions: 37 °C
Panx1 channels [1] = target: Panx1 channels (Mus musculus, UniProt Q9JIP4); assay: HOS-induced ATP release assay in B16-BL6 cells; conditions: B16-BL6, read-out: % ATP release inhibition at 100µM (in B16-BL6 cells)
Panx1 channels [2] = target: T1, Panx1 channels (Homo sapiens, UniProt Q96RD7); assay: HOS-induced ATP release assay in EA.hy926 endothelial cells; assay type: cell-based
T1 construct: host or cells: EA.hy926 human endothelial cells
Protocol: Similar to B16-BL6 cells, a 2–3-fold enhancement of ATP release from EA.hy926 cells was observed upon HOS stimulation (Figure 7E). However, the absolute levels of ATP release were lower in these endothelial cells (around 300 vs 500–600 nM in B16-BL6 cells). As expected, Pbn reduced HOS-induced ATP release from EA.hy926 cells, albeit by a lower fraction than the one observed in B16-BL6 cells (Figure 7E vs7A). The reason for this different efficacy of Pbn is unknown but may be due to its nonspecific action on other ATP release channels or transporters,[68] of which the expression naturally varies among different cell types. […] The water-soluble double-stapled ^10Panx1 peptidomimetic SBL-PX1-206 reduced HOS-induced ATP release from EA.hy926 cells by about 25% at 12.5 μM. […] Stapled and double-stapled ^10Panx1 analogues were also not cytotoxic when tested at 100 and 12.5 μM in EA.hy926 cells (Supporting Information, Figure S8).
Triplicates were performed for each independent experiment.

B16-BL6 cells = assay: LDH cytotoxicity assay in B16-BL6 cells; assay type: cell-based, mouse; conditions: peptides 100 to 6.25 µM, Pbn 2.5 mM, HOS solution

T1 sequence (Q96RD7 whole entry): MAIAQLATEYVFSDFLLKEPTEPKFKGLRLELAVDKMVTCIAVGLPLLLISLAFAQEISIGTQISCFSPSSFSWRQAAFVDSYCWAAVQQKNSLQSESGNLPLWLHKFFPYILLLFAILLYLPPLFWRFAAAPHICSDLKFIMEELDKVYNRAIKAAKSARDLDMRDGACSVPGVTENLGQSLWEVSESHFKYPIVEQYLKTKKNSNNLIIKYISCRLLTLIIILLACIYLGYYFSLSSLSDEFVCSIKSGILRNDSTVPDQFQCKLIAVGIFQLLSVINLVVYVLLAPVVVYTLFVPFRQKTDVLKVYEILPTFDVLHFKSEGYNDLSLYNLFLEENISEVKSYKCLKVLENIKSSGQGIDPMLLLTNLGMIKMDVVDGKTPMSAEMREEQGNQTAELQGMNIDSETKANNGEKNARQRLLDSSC
Panx1 channels (Mus musculus, UniProt Q9JIP4), sequence (Q9JIP4 whole entry): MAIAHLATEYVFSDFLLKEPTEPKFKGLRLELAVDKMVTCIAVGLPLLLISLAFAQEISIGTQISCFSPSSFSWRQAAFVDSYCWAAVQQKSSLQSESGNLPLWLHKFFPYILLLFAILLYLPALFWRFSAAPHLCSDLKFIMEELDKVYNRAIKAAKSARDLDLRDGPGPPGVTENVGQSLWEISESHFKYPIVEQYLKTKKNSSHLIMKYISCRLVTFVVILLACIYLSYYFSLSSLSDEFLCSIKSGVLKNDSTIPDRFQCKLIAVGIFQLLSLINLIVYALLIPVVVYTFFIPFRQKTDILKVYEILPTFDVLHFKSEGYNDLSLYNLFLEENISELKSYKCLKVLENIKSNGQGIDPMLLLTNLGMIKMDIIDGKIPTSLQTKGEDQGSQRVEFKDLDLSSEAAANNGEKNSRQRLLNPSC

Molecule: CC(=O)N[C@@H](CO)C(=O)N[C@@H](Cc1c[nH]c2ccccc12)C(=O)N[C@@H](CCCNC(=N)N)C(=O)N[C@@H](CCC(N)=O)C(=O)N[C@@H](C)C(=O)N[C@@H](C)C(=O)N[C@H]1Cc2cn(nn2)CCC[C@@H](C(N)=O)NC(=O)[C@H](CO)NC(=O)[C@H](CC(=O)O)NC(=O)[C@H](C(C)C)NC1=O (Ac-SWRQAA[Pra]VDS[Orn(N3)]-NH2; triazole 7-11)
helicity (circular dichroism): 6%

Molecule: CC(=O)N[C@@H](CO)C(=O)N[C@@H](Cc1c[nH]c2ccccc12)C(=O)N[C@@H](CCCNC(=N)N)C(=O)N[C@@H](CCC(N)=O)C(=O)N[C@@H](C)C(=O)N[C@H]1CCCCn2cc(nn2)C[C@@H](C(=O)N[C@@H](Cc2ccc(O)cc2)C(N)=O)NC(=O)[C@H](CC(=O)O)NC(=O)[C@H](C(C)C)NC(=O)[C@H](Cc2ccccc2)NC1=O (Ac-SWRQA[Lys(N3)]FVD[Pra]Y-NH2; triazole 6-10)
helicity (circular dichroism): 32%

Molecule: CC(=O)N[C@@H](CO)C(=O)N[C@@H](Cc1c[nH]c2ccccc12)C(=O)N[C@@H](CCCNC(=N)N)C(=O)N[C@@H](CCC(N)=O)C(=O)N[C@@H](C)C(=O)N[C@H]1CCc2cn(nn2)CCCC[C@@H](C(=O)N[C@@H](Cc2ccc(O)cc2)C(N)=O)NC(=O)[C@H](CC(=O)O)NC(=O)[C@H](C(C)C)NC(=O)[C@H](Cc2ccccc2)NC1=O (Ac-SWRQA[Hpra]FVD[Lys(N3)]Y-NH2; triazole 6-10)
helicity (circular dichroism): 28%

cleaved bond (human plasma; up to 24 h): A-F, major; also recorded: D-S, major
Molecule: Ac-*WRQ*AFVDSY-NH2
not cleaved (human plasma; up to 24 h): amide bonds within the macrocycle remained intact for several hours

Molecule: CC(=O)N[C@H]1CCCCn2cc(nn2)C[C@@H](C(=O)N[C@@H](C)C(=O)N[C@@H](Cc2ccccc2)C(=O)N[C@H](C(=O)N[C@@H](CC(=O)O)C(=O)N[C@@H](CO)C(=O)N[C@@H](Cc2ccc(O)cc2)C(N)=O)C(C)C)NC(=O)[C@H](CCC(N)=O)NC(=O)[C@H](CCCNC(=N)N)NC(=O)[C@H](Cc2c[nH]c3ccccc23)NC1=O (Ac-[Lys(N3)]WRQ[Pra]AFVDSY-NH2; triazole 1-5)
helicity (circular dichroism): 20%

Molecule: CC(C)[C@H](NC(=O)[C@H](Cc1ccccc1)NC(=O)[C@H](C)NC(=O)[C@H](C)NC(=O)[C@H](CCC(N)=O)NC(=O)[C@H](CCCNC(=N)N)NC(=O)[C@@H](N)Cc1c[nH]c2ccccc12)C(=O)N[C@@H](CC(=O)O)C(=O)N[C@@H](CO)C(=O)N[C@@H](Cc1ccc(O)cc1)C(=O)O [^10Panx1, WRQAAFVDSY] (H-WRQAAFVDSY-OH)
inhibition at 100 µM (Panx1 channels [1]): 19%
inhibition at 100 µM (Panx1 channels [2]; EA.hy 926, read-out: % ATP release inhibition at 100µM (in EA.hy926 cells)): 24%
cytotoxicity (extracellular LDH) (B16-BL6 cells): no cytotoxicity

Molecule: CC(=O)N[C@H]1CCc2cn(nn2)CCCC[C@@H](C(=O)N[C@@H](C)C(=O)N[C@@H](Cc2ccccc2)C(=O)N[C@H](C(=O)N[C@@H](CC(=O)O)C(=O)N[C@@H](CO)C(=O)N[C@@H](Cc2ccc(O)cc2)C(N)=O)C(C)C)NC(=O)[C@H](CCC(N)=O)NC(=O)[C@H](CCCNC(=N)N)NC(=O)[C@H](Cc2c[nH]c3ccccc23)NC1=O (Ac-[Hpra]WRQ[Lys(N3)]AFVDSY-NH2; triazole 1-5)
helicity (circular dichroism): 26%

Molecule: CC(=O)N[C@@H]1Cc2cn(nn2)CCCC[C@@H](C(=O)N[C@@H](C)C(=O)N[C@@H](Cc2ccccc2)C(=O)N[C@H](C(=O)N[C@@H](CC(=O)O)C(=O)N[C@@H](CO)C(=O)N[C@@H](Cc2ccc(O)cc2)C(N)=O)C(C)C)NC(=O)[C@H](CCC(N)=O)NC(=O)[C@H](CCCNC(=N)N)NC(=O)[C@H](Cc2c[nH]c3ccccc23)NC1=O
helicity (circular dichroism): 18%

cleaved bond (human plasma; up to 24 h): K-Ahx, major, 8 hours
Molecule: R-*WRQ**FVD*Y-NH2 (m = 1; n = 4; R = K-Ahx-)

Molecule: CC(=O)N[C@@H](CO)C(=O)N[C@@H](Cc1c[nH]c2ccccc12)C(=O)N[C@@H](CCCNC(=N)N)C(=O)N[C@@H](CCC(N)=O)C(=O)N[C@@H](C)C(=O)N[C@@H](C)C(=O)N[C@H]1Cc2cn(nn2)CCCC[C@@H](C(N)=O)NC(=O)[C@H](CO)NC(=O)[C@H](CC(=O)O)NC(=O)[C@H](C(C)C)NC1=O (Ac-SWRQAA[Pra]VDS[Lys(N3)]-NH2; triazole 7-11)
helicity (circular dichroism): 37%

Molecule: CC(C)[C@H](NC(=O)[C@H](Cc1ccccc1)NC(=O)[C@H](C)NC(=O)[C@H](C)NC(=O)[C@H](CCC(N)=O)NC(=O)[C@H](CCCNC(=N)N)NC(=O)[C@H](Cc1c[nH]c2ccccc12)NC(=O)CCCCCNC(=O)[C@@H](N)CCCCN)C(=O)N[C@@H](CC(=O)O)C(=O)N[C@@H](CO)C(=O)N[C@@H](Cc1ccc(O)cc1)C(=O)O [SBL-PX1-214] (H-K[Ahx]WRQAAFVDSY-OH)
inhibition at 100 µM (Panx1 channels [2]; EA.hy 926, 100 µM, 30 min HOS stimulation, read-out: % ATP release inhibition at 100µM (in EA.hy926 cells)): 30%

Molecule: CC(=O)N[C@@H](CO)C(=O)N[C@@H](Cc1c[nH]c2ccccc12)C(=O)N[C@@H](CCCNC(=N)N)C(=O)N[C@@H](CCC(N)=O)C(=O)N[C@@H](C)C(=O)N[C@@H](C)C(=O)N[C@@H](Cc1ccccc1)C(=O)N[C@H]1Cc2cn(nn2)CCC[C@@H](C(N)=O)NC(=O)[C@H](Cc2ccc(O)cc2)NC(=O)[C@H](CO)NC(=O)[C@H](CC(=O)O)NC1=O (Ac-SWRQAAF[Pra]DSY[Orn(N3)]-NH2; triazole 8-12)
helicity (circular dichroism): 12%

Molecule: WRQAAFVDSY
cleaved bond (human plasma; cited from earlier work): Trp74-Arg75; also recorded: Ala78-Phe79

Molecule: CC(=O)N[C@@H](CO)C(=O)N[C@@H](Cc1c[nH]c2ccccc12)C(=O)N[C@@H](CCCNC(=N)N)C(=O)N[C@@H](CCC(N)=O)C(=O)N[C@@H](C)C(=O)N[C@H]1Cc2cn(nn2)CCC[C@@H](C(=O)N[C@@H](Cc2ccc(O)cc2)C(N)=O)NC(=O)[C@H](CC(=O)O)NC(=O)[C@H](C(C)C)NC(=O)[C@H](Cc2ccccc2)NC1=O (Ac-SWRQA[Pra]FVD[Orn(N3)]Y-NH2; triazole 6-10)
helicity (circular dichroism): 17%

Molecule: CC(=O)N[C@@H](CO)C(=O)N[C@@H](Cc1c[nH]c2ccccc12)C(=O)N[C@@H](CCCNC(=N)N)C(=O)N[C@@H](CCC(N)=O)C(=O)N[C@@H](C)C(=O)N[C@@H](C)C(=O)N[C@@H](Cc1ccccc1)C(=O)N[C@H]1Cc2cn(nn2)CCCC[C@@H](C(N)=O)NC(=O)[C@H](Cc2ccc(O)cc2)NC(=O)[C@H](CO)NC(=O)[C@H](CC(=O)O)NC1=O (Ac-SWRQAAF[Pra]DSY[Lys(N3)]-NH2; triazole 8-12)
helicity (circular dichroism): 30%

cleaved bond (human plasma; up to 24 h): R-Q, major; also recorded: A-*, major
Molecule: Ac-SWRQA*FVD*Y-NH2

Molecule: CC(=O)N[C@H]1Cc2cn(nn2)CCC[C@@H](C(=O)N[C@@H](C)C(=O)N[C@@H](Cc2ccccc2)C(=O)N[C@H](C(=O)N[C@@H](CC(=O)O)C(=O)N[C@@H](CO)C(=O)N[C@@H](Cc2ccc(O)cc2)C(N)=O)C(C)C)NC(=O)[C@H](CCC(N)=O)NC(=O)[C@H](CCCNC(=N)N)NC(=O)[C@H](Cc2c[nH]c3ccccc23)NC1=O (Ac-[Pra]WRQ[Orn(N3)]AFVDSY-NH2; triazole 1-5)
helicity (circular dichroism): 14%

Molecule: CC(=O)N[C@@H](CO)C(=O)N[C@@H](Cc1c[nH]c2ccccc12)C(=O)N[C@@H](CCCNC(=N)N)C(=O)N[C@@H](CCC(N)=O)C(=O)N[C@@H](C)C(=O)N[C@@H]1Cc2cn(nn2)CCCC[C@@H](C(=O)N[C@@H](Cc2ccc(O)cc2)C(N)=O)NC(=O)[C@H](CC(=O)O)NC(=O)[C@H](C(C)C)NC(=O)[C@H](Cc2ccccc2)NC1=O
helicity (circular dichroism): 7%

From paper PMC10544015 (Journal of Medicinal Chemistry, 2023)
